Assay results from the DeepSol protein solubility set.

Assay: soluble on expression in E. coli; label from the status in PepcDB or PDB records

Soluble on expression in E. coli, not soluble:
MQVLTTSRKPGRKTRRFAKVLARFFNWKYVNRGKLSLEDLAGIAERFWIISEVKGNPAILNLYERGEKTLEVSFTLSNVNKIKMDDSPAVFKGKAPIDPLVFGAIPQTKAGLKLTRKVEFRKKVVVKGDEWLFFYDDEMLFKLRILKISRSSR, MQVNFSSFLDNFFAMQVCREMTRNDVKFAISPQFLRISRHPHIP, MQVRRAVLGAAHVERSLANLTPFNEEFQEMITRHAWGDIWTRPGLPRHTRSLVTIAMLIGMNRNEELKLHLRAAKNNGVSRDEIKEVIMQSAIYCGIPAANATFHLAESVWDELGVESQQASR, MRAIVFVKATKSSEEGVMPTTELMEAMGKFNEELVNAGIMQSGDGLHPSSKGKRVVFDGDSRTVVNGPFPHTNELVAGFWIWKVKDMDEAVEWVKRCPNPMLEKSEIEIRPMFEMEDFGDAVTPEIAAHVEELRARVGKQ, MRAIYATDLSAASEAAIQNETCLECLGRIGVDTIHLVTVIPSNVHAGMPGMNFSKRREQGLTRYQNVMEDAGFDTETHVVRGTPHRRINGIAEAEKADVTIIGSRGQSPLNNRVIGSTARNLARTTVVPLLVNRIERSTDEPDVLREHLFQRVLYATDFSENATRAFDAFQYLRHATQEATLVHVESPKDATSEADPAEQLASLADTLSQWDIETNVEVRRGDPAEEILDVEAAVTPTTTLVGSRGQSRMRRLLLGSVSEDIIAQATGNVYLVPPPRTA, MRALILGGTGEGRDVAAILHVAGWRVTSSLAGRVSNPKLPVGEVRIGGFGGPAGLTQWLLREGVEVIIDATHPFAERISASAAEASRATGIPLIALHRPEWKPRPRDRWIPVTSMQEAADKAARDYHHIFLTIGRQQLAPFAHDAHNLYVVRAVEPPQVALPQRHRLILSRGPFTLESEKKLMIDNQIDCVVTKNSGGPLTHAKLDAARDLGIDVVMVQRPQLPKVTHVATSAAEVAEIIDSL, MRALVVGAGIGGLVAARALRRAGLEVLVLEAHTYPGGLAGTFTHRGYRFDAGATLLSGFAPGGPMALVAEALGVCLPVEPFPEGFPLMEVHLPRGPLLRPVGREAEREAQRDFFGPRVLPFWRWQEERAKALLRLAPRLPWPPEREELLRLLALLPELFPLLPDLFLKAAHRAPQDPHFLRFLDAQLLIASQAEAKRTYALYAALALDLPHMGPALVPGGVGRVAEALAEGLPVRYKARAERLLLGEGRALAVEVAYGGRRRGEREVVEADLFVLDVPLAPLLGLPLKVPEDAWGAFVVHGVLPFRAPPPYFRQNAREKPFAFLSLRPEGEKTAFALSLHTPLALWEGLSPEEYGRLKARWGEMALSLGEALLPGLREAELLLFGTPRTYARFAGRAWVGGFPQTHPFRFPRVRPFPNVFRVGEGVFPGQSVPAAALSGLRAARLALEALGLAGSGGEARPSFPPFPLEHHHHHH, MRDEISSRIRRLPAGMSGGRAPDFALAVYGGAFDPPHPGHESVIRRALLCAERVALVPSHRHAFGKRMGDFELRCRWLARLARRIDPRRVYCEPIEAGLMPDRPAVYSIDLLEALAARSGLASARIALLIGADNEAELPRFERAAELCWRFGRLVAEERLPLHSSMIRQRLREGLAVPEAWCLPEVKDELHCYGGERQAV, MRDIQQVLERWGAWVANNHEDVTWSSIAAGFKGLIPSKVKSRPQCCDDDAMVICGCMARLNRNNNDLHDLLVDYYVFGMTFMTLARKHGCSDGYIGKKLQKAEGVVEGMLMMLGVRLEMDKYIEHP, MRDMIYGEMALVSHTHPAAVGSTTCYEKNQQKQQQVQQIPTQPQVAHVSSNAILAAAQPFYPPPVQDSQPDRPIGYGAFGVVWSVTDPRSGKRVALKKMPNVFQNLASCKRVFREIKMLSSFRHDNVLSLLDILQPANPSFFQELYVLTELMQSDLHKIIVSPQALTPDHVKVFVYQILRGLKYLHTANILHRDIKPGNLLVNSNCILKICDFGLARTWDQRDRLNMTHEVVTQYYRAPELLMGARRYTGAVDIWSVGCIFAELLQRKILFQAAGPIEQLQMIIDLLGTPSQEAMKYACEGAKNHVLRAGLRAPDTQRLYKIASPDDKNHEAVDLLQKLLHFDPDKRISVEEALQHRYLEEGRLRFHSCMCSCCYTKPNMPSRLFAQDLDPRHESPFDPKWEKDMSRLSMFELREKMYQFVMDRPALYGVALCINPQSAAYKNFASSSVAQASELPPSPQAW, MRDVHSISAMNLRDVLSIPEVKQGQVIGKKIPATLGEDGMNVLGEPIKAKPGREFVLRPGKNSTVDEANGTLVAAVDGQMSVDKRTIHVYPVYEVPGDLTMKHGNISFIGNVIIRGHVPDGFVVKAGGDIRVFGTVEGATLEAGGSIFVGAGIVGQNRGCIRAEGGLHTTFINQAKVEVGGDIEVVQSILHSTCTAGGKIICTRGKGNIVGGALSAEDHIYAKEIGNSMHTKTSLYIGAKEKWVTKEKQLAKEYKTTEEELKKLSLLLQKFQELEKENGLTANGRVQRLRVKNTLVQVKEKHEQIKEQLEDVQENLTLNQAGSIVVEQTLYPNVSAHFGKYRRKIVSNHSNVKLSLVDQEIQLSSRLEHHHHHH, MREWKSQDAWKQHSLRLCFGVWPGTEFLHRPRAVHRRSGVVCSQMQTEDSHPETPQVPKESLQEEKDSSPATDASFIQSQDGKTVFLDRRTERRIQRGFVLTERGPRSIWKPAGTSSQRNERVPRRAAARGGAGPPDTTPQLATVRVLVLGANHVAQRLAELLSSHSRVCGCYFVSETTDEAAIESMKKYAYALPLRSALNDDEVVRVAEWVLADYVFLVPTGETHDDGVSLKDKERLERTLAQNRVTFMDENLTGLLLENPSLIDALFRARDSLEA

Soluble on expression in E. coli, soluble:
MQTSPLLTQLMEALRCLPGVGPKSAQRMAFTLLQRDRSGGMRLAQALTRAMSEIGHCADCRTFTEQEVCNICSNPRRQENGQICVVESPADIYAIEQTGQFSGRYFVLMGHLSPLDGIGPDDIGLDRLEQRLAEEKITEVILATNPTVEGEATANYIAELCAQYDVEASRIAHGVPVGGELEMVDGTTLSHSLAGRHKIRF, MQVDDWIVGLEVEIFTFDGKEYRGIVYTYDADANCVVLARKSQDSLKSDLRILKASLVKNINVLGRSNVDQLPQQLSPLNLEALKMREEQALQKARKDLARTGVGVSQQAQEIFDALCKTLPCQWEEDSIVIFENIKLKKPYRVEDLEGSEIEAVNRVKVVLENELQKLQRRNT, MQVFIMRHGDAALDAASDSVRPLTTNGCDESRLMANWLKGQKVEIERVLVSPFLRAEQTLEEVGDCLNLPSSAEVLPELTPCGDVGLVSAYLQALTNEGVASVLVISHLPLVGYLVAELCPGETPPMFTTSAIASVTLDESGKGEFNWQMSPCNLKMAKAI, MQWSKEEEAAARKKVKENSAVRVLLEEQVKYEREASKYWDTFYKIHKNKFFKDRNWLLREFPEILPVDQKPEEKARESSWDHVKTSATNRFSRMHCPTVPDEKNHYEKSSGSSEGQSKTESDFSNLDSEKHKKGPMETGLFPGSNATFRILEVGCGAGNSVFPILNTLENSPESFLYCCDFASGAVELVKSHSSYRATQCFAFVHDVCDDGLPYPFPDGILDVILLVFVLSSIHPDRTLFI, MQYKDENGVNEPSRRRLLKVIGALALAGSCPVAHAQKTQSAPGTLSPDARNEKQPFYGEHQAGILTPQQAAMMLVAFDVLASDKADLERLFRLLTQRFAFLTQGGAAPETPNPRLPPLDSGILGGYIAPDNLTITLSVGHSLFDERFGLAPQMPKKLQKMTRFPNDSLDAALCHGDVLLQICANTQDTVIHALRDIIKHTPDLLSVRWKREGFISDHAARSKGKETPINLLGFKDGTANPDSQNDKLMQKVVWVTADQQEPAWTIGGSYQAVRLIQFRVEFWDRTPLKEQQTIFGRDKQTGAPLGMQHEHDVPDYASDPEGKVIALDSHIRLANPRTAESESSLMLRRGYSYSLGVTNSGQLDMGLLFVCYQHDLEKGFLTVQKRLNGEALEEYVKPIGGGYFFALPGVKDANDYFGSALLRV, MQYKLILNGKTLKGETTTEAVDAATAEKVFKQYANDNGVDGEWTYDDATKTFTVTEGSHHHHHHMHRDSCPLDCKVYVGNLGNNGNKTELERAFGYYGPLRSVWVARNPPGFAFVEFEDPRDAADAVRELDGRTLCGCRVRVELSNGEKR, MRALSSLLLTLLLAGPAFAEPSAELQEPLAGWRYSGLLDRTEQDRVAYPTPPIDRGIQRNRTLIEGQLKAIGHLRQPHSLSVNGNPLNLYTDEQGRFARPYAFGAGSNSVEVRSSEGKPLKRVQFYEANLNKTPPRIRVVLGWDDPKAELDMHIITPDGQHAFFGHPGLTNGGGLDPDGVDGPGPEMFTMTAPLRGTYLIYVNYWGNFGSGGYNFDEGSNQNEVITSQINLILNENTVDEKRETFIVPMRAIGDLLLVKSFNYLEHHHHHH, MRARIYQPARNAMTSGMAKTRKWVLEYAPGSAREVDPLMGWTSSSDTQSQVRLRFDSKEEALDYARAHGIDAVVTEPHKRKPNLRARGYGENFATDRRGPWTH, MRDLLNDLSEGLSHPDPILRAQIQMQKPLPKRFYKDVTVADVEEGGFTILLDGKPLRTPAKKPLVAPSRALADLLRDEWDAQKEVVNPVVMPVSRHVNTAIDGIASDTQAVFEDILRFSSSDLLCYRAGDPEALVARQTDYWDPVLDWATNVLGARFILVEGVMHRDQPREAIAAFAVTLKKYDTPIALAALHTMTSLTGSAILALALAEGELTLEEAWALAHLDEDWTAEQWGEDEEALERRAVRLIDMRAALNVLESLKSAS, MRDNASLAHTQWNCKYHIVFVPKYRRQVIYGKIKKDIGQILRKLCEMKGVEIIEASLCPDHIHMLVSIPPKISVSSFMGYLKGKSSLMIFDRHANLKYKYGNRHFWCRGYYVDTVGRNRKAIEQYIRRQLQEDIASDQISLNEYIDPFTGERVNKSKK, MRDQMLPSIILFDGVCNFCNYWVQFIIKRDPQATFQFASLQSEVGQELLEKHSIDRSTDSVVLIMEGQAFVCSDAVLKIVAQLDSPIRWLKWAVIFPRFLRDFIYRIVARNRYKWFGKRDECQIPTKEQRSRFLLEHHHHHH, MREIIFLVEEAEEGGFVARALGEAIFTEGETWEELKEMVRDAVRCHFGEEAPPIIRLHFVREEVLTP, MREYRITAEEGHPRIDVFLAGRPEIGLSRSRIQALIDEGQVTLNGAMPKARQAVNPGDVIVVRVPDPEPMELVPEDIPLDIVYEDEDILVVNKQRGLVVHPAAGHWTGTLVHALLDKVDDLEGIGGELRPGIVHRLDKDTTGLLVVAKSERAMASLQEQIRDHMVQRVYWALVHGNSMPDTGRIEAPIGRHPRDRKRMAVNPKTGRDAVTYFRVLERYRGYALLECRLETGRTHQIRVHLSFIGHPVVGDPLYGPRKPHLGMPPQALHARQLSFRHPASGEWMEFTVDPPADMMAVVQRLREEA
